How the values were obtained:
CHD4 ABM = CHD4 ABM (Homo sapiens, UniProt Q14839); experiment: ITC
[1] = target: T1, histone H3K9me3 peptide H3K9me3 peptide (Homo sapiens, UniProt P68431, K9me3); experiment: ITC
T1 chain: ARTKQTARKSTGGKA

CHD4 ABM, sequence (Q14839 100-140): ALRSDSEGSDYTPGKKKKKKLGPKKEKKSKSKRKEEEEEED

Kd (CHD4 ABM): ~46 µM
Kd [1]: ~4 µM
B1: ATRX ADD (protein)
chain: NLKKRGEDGLHGIVSCTACGQQVNHFQKDSIYRHPSLQVLICKNCFKYYMSDDISRDSDGMDEQCRWCAEGGNLICCDFCHNAFCKKCILRNLGRKELSTIMDENNQWYCYICHPEPLLDLVTACNSVFENLEQLLQQNKKKIK
